Data as given in US8153134.

Target: human MDL-1 (human) (UniProt Q9NY25)
Test: cell-based or functional assay

Sequence of human MDL-1 (human) (Q9NY25 whole entry): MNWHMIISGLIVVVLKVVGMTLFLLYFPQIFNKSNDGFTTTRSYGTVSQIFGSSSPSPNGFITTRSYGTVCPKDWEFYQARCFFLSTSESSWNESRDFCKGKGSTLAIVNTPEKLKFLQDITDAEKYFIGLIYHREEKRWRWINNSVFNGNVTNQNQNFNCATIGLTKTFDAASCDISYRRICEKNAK

With “rat isotype control mAb (rIgG1) (antibody)” the secreted beta-hexosaminidase, OD (405-570), DT808 mouse mast cells, cross-link was 0.065 OD (405-570) and the secreted beta-hexosaminidase, OD (405-570), DT808 mouse mast cells, no cross-link was 0.1 OD (405-570).
